Paper PMC3137072

Key:
[1] = biological target: filamentous actin (F-actin), non-muscle actin (UniProt P60709)
[2] = biological target: microtubules (polymerized tubulin) (UniProt Q6B856)
microtubules (polymerized tubulin), sequence (Q6B856 whole entry, looked up): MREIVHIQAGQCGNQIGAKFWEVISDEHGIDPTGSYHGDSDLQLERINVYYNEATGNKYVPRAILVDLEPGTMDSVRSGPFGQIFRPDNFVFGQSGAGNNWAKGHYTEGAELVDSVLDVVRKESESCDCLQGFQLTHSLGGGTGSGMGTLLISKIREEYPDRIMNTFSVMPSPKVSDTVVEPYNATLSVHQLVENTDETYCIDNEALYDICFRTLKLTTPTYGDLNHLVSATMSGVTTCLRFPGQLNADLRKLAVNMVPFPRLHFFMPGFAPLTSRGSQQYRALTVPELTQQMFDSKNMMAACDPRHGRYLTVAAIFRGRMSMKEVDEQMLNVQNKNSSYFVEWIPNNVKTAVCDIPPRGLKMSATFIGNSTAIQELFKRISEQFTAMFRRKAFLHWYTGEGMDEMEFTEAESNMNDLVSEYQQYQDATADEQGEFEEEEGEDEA

G2L3-CH (calponin homology domain of GAS2-like 3), sequence (Q86XJ1 48-168): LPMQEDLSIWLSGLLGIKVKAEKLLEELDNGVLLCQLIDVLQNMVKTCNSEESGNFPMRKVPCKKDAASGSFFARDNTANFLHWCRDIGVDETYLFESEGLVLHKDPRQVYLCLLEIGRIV
G2L3-ΔGAR (GAS2-like 3 lacking the GAR domain), GFP-tagged, sequence (Q86XJ1 whole entry, stated change not applied, the tested form may be a part): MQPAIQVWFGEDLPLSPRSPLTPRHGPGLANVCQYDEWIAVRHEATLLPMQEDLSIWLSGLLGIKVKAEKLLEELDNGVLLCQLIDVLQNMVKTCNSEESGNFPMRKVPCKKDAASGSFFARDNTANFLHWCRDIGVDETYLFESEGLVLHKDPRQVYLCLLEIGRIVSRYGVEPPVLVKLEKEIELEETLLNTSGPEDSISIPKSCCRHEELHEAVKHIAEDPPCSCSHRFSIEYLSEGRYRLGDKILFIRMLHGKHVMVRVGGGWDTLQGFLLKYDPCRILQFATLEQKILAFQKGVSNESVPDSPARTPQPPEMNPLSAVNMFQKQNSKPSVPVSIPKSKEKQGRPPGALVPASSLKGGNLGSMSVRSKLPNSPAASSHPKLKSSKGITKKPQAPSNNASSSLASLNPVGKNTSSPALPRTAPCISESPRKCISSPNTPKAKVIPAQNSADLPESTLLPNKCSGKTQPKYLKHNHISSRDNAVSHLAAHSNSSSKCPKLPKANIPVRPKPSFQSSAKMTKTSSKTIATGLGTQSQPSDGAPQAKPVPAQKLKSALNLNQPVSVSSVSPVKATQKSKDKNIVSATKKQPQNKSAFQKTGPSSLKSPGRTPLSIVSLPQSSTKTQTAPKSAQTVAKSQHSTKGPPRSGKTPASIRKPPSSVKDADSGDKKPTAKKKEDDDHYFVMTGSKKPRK

G2L3-CH (calponin homology domain of GAS2-like 3) (from UniProt Q86XJ1 48-168) (domain or fragment)
FRAP, t½ of recovery of GFP-tagged G2L3-CH on actin filaments in NIH3T3 cells [1]: 28.5 s

G2L3-ΔCH (GAS2-like 3 lacking the CH domain), GFP-tagged (domain or fragment)
FRAP, t½ of recovery of GFP-tagged G2L3-ΔCH on MTs in NIH3T3 cells [2]: 15.3 s

G2L3-C-term (C terminus of GAS2-like 3) (domain or fragment)
FRAP, t½ of recovery of GFP-tagged G2L3-C-term on MTs in NIH3T3 cells [2]: 3.9 s

G2L3-ΔGAR (GAS2-like 3 lacking the GAR domain), GFP-tagged (from UniProt Q86XJ1 1-694) (natural protein)
FRAP, t½ of recovery of GFP-tagged G2L3-ΔGAR on MTs in NIH3T3 cells [2]: 6 s
